Test results from patent US20100021474.

Target: Kunitz domain inhibitor KD1 derived from hepatocyte growth factor activator inhibitor-1B (HAI-1B) (UniProt O43278)
Sequence (O43278 246-303): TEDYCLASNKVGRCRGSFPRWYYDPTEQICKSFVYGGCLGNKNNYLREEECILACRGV

soluble form of HEPSIN comprising the entire extracellular domain (human HEPSIN Arg45-Leu417, His-tagged), sequence (chain, as listed by the source): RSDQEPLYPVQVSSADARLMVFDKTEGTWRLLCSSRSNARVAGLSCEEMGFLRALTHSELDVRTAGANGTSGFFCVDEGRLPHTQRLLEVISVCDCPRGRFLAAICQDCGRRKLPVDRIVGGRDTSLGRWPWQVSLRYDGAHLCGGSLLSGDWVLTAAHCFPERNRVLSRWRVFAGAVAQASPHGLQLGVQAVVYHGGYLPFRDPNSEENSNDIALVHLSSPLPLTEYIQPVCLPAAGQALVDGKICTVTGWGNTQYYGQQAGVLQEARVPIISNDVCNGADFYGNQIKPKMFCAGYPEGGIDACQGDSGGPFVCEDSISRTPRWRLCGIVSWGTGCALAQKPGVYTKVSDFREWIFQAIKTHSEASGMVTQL

Q: Which “HEPSIN activity in a chromogenic substrate assay with the para-nitroanilide substrate S2366” value does the source give for “soluble form of HEPSIN comprising the entire extracellular domain (human HEPSIN Arg45-Leu417, His-tagged)” here?
A: The value was “completely inhibited HEPSIN activity at a concentration of 50 nM”.
